Data published in patent US20250076311A1 (Chugai, published 2025).
Substitutions are numbered along the chain they refer to. Names and notes keep the numbering of the source.

B1: GpH7-B3 N325F / GpL16-k0 (antibody, human IgG1, kappa)
heavy: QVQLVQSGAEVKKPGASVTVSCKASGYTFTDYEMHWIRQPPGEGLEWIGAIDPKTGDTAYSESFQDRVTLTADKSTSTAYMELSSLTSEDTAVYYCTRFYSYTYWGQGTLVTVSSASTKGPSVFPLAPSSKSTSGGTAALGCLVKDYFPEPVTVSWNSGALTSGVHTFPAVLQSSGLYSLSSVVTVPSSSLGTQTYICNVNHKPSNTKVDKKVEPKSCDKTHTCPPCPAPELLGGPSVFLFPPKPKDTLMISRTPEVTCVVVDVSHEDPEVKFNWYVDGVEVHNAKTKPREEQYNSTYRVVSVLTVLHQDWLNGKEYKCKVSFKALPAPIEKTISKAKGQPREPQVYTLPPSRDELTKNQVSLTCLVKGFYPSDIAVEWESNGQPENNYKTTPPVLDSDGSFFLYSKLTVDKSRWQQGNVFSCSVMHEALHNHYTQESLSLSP
light: DIVMTQSPLSLPVTPGEPASISCQASESLVHSNRNTYLHWYLQKPGQSPQLLIYKVSNRFSGVPDRFSGSGSGTDFTLKISRVEAEDVGVYYCSQNTHVPPTFGQGTKVEIERTVAAPSVFIFPPSDEQLKSGTASVVCLLNNFYPREAKVQWKVDNALQSGNSQESVTEQDSKDSTYSLSSTLTLSKADYEKHKVYACEVTHQGLSSPVTKSFNRGEC
notes: also called B3 variant N325F
B2: GpH7-B3 P238Y / GpL16-k0 (antibody, human IgG1, kappa)
heavy: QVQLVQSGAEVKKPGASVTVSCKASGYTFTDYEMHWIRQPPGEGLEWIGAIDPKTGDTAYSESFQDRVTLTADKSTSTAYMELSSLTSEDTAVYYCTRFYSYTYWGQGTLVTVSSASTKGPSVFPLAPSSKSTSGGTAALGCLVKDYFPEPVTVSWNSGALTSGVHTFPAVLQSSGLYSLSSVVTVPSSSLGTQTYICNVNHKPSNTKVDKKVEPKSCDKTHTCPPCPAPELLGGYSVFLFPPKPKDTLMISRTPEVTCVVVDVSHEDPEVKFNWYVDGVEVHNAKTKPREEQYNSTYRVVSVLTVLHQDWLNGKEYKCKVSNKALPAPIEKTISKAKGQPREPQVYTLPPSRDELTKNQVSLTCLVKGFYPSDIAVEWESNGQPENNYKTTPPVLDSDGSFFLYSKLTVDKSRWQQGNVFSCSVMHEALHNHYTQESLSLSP
light: B1 light
notes: also called B3 variant P238Y
B3: GpH7-B3 S239P / GpL16-k0 (antibody, human IgG1, kappa)
heavy: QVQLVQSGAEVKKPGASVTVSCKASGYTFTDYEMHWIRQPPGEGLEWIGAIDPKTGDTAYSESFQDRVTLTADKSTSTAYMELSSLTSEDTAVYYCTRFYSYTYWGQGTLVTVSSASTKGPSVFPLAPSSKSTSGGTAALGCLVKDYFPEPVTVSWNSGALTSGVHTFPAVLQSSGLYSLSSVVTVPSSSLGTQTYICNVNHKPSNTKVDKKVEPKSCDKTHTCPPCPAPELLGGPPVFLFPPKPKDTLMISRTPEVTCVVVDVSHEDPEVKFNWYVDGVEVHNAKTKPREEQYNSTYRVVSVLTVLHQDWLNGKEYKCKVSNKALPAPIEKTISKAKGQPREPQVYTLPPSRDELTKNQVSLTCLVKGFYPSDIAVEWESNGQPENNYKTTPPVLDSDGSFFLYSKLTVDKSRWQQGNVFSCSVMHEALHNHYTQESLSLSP
light: B1 light
notes: also called B3 variant S239P
B4: GpH7-B3 V266F / GpL16-k0 (antibody, human IgG1, kappa)
heavy: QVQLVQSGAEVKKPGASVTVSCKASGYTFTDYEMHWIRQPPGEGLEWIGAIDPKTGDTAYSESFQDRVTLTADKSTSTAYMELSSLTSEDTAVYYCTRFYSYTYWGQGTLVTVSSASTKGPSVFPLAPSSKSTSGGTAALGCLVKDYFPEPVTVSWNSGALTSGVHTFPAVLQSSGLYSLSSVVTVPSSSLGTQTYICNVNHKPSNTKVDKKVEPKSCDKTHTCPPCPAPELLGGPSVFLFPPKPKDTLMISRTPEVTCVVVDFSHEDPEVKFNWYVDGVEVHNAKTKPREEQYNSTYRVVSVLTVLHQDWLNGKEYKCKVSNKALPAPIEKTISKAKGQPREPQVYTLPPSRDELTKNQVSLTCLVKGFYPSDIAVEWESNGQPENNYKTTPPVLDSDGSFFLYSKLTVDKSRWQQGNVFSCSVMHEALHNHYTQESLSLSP
light: B1 light
notes: also called B3 variant V266F
B5: M103205H795-MY049/M103202L889-SK1 (antibody, human IgG1, kappa, name in EU numbering)
heavy: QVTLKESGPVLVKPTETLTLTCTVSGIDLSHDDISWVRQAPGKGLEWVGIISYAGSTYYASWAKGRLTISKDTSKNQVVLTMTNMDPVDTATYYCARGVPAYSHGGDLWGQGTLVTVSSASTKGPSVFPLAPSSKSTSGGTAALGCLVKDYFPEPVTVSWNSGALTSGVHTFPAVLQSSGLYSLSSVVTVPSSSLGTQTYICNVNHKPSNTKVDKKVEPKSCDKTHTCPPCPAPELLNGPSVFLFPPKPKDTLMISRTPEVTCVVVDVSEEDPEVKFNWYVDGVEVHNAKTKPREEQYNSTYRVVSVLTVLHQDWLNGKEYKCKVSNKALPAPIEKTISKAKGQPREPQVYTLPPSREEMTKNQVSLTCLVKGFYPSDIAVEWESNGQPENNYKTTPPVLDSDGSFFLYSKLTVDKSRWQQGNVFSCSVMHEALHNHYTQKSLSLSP
light: DIVMTQSPATLSLSPGERATLSCTSSQSVYHANWLSWFQQKPGQPPKLLIYWASTLAYGVPSRFSGSGSGTDFTLTISSLQPEDAATYYCAGGYGGGRYAFGQGTKVEIKRTVAAPSVFIFPPSDEQLKSGTASVVCLLNNFYPREAKVQWKVDNALQSGNSQESVTEQDSKDSTYSLSSTLTLSKADYEKHKVYACEVTHQGLSSPVTKSFNRGEC
notes: Fc variant of MS1032LO06-SG1; positions in EU numbering
B6: M103205H795-MY197/M103202L889-SK1 (antibody, human IgG1, kappa, name in EU numbering)
heavy: QVTLKESGPVLVKPTETLTLTCTVSGIDLSHDDISWVRQAPGKGLEWVGIISYAGSTYYASWAKGRLTISKDTSKNQVVLTMTNMDPVDTATYYCARGVPAYSHGGDLWGQGTLVTVSSASTKGPSVFPLAPSSKSTSGGTAALGCLVKDYFPEPVTVSWNSGALTSGVHTFPAVLQSSGLYSLSSVVTVPSSSLGTQTYICNVNHKPSNTKVDKKVEPKSCDKTHTCPPCPAPELLNGPSVFLFPPKPKDTLMISRTPEVTCVVVDVSDEDPEVKFNWYVDGVEVHNAKTKPREEQYNSTYRVVSVLTVLHQDWLNGKEYKCKVSNKALPKPIEKTISKAKGQPREPQVYTLPPSREEMTKNQVSLTCLVKGFYPSDIAVEWESNGQPENNYKTTPMVLDSDGSFFLYSKLTVDKSRWQQGNVFSCSVMHEALHNHYTQKSLSLSP
light: B5 light
notes: as for B5
B7: M103205H795-MY288/M103202L889-SK1 (antibody, human IgG1, kappa, name in EU numbering)
heavy: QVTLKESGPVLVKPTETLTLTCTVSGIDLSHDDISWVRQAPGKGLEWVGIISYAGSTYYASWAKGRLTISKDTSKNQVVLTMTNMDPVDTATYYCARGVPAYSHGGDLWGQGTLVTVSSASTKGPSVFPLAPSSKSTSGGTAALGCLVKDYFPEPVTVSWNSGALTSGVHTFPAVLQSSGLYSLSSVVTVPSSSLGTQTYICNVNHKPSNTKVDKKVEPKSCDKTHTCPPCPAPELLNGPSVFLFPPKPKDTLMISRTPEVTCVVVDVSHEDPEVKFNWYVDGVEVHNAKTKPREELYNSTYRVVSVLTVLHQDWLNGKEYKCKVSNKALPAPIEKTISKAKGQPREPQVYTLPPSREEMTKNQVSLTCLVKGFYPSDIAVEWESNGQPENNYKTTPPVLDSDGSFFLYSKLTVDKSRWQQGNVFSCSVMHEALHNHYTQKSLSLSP
light: B5 light
notes: substitutions in EU numbering, introduced into M103205H795-SG1
B8: M103205H795-MY204/M103202L889-SK1 (antibody, human IgG1, kappa, name in EU numbering)
heavy: B6 heavy with S241V, D270E, Q297L, M398P
light: B5 light
notes: as for B7
B9: M103205H795-MY350/M103202L889-SK1 (antibody, human IgG1, kappa, name in EU numbering)
heavy: B6 heavy with L237W, D270E
light: B5 light
notes: as for B7
B10: M103205H795-MY200/M103202L889-SK1 (antibody)
heavy: B6 heavy with S241V, D270E, M398P
light: B5 light
notes: Fc variant of MS1032LO06-SG1; EU numbering; printed S2369V is probably S239V
B11: M103205H795-MY434/M103202L889-SK1 (antibody, human IgG1, kappa, name in EU numbering)
heavy: B6 heavy with L237W, M398P
light: B5 light
notes: as for B5
B12: M103205H795-MY440/M103202L889-SK1 (antibody, human IgG1, kappa, name in EU numbering)
heavy: B6 heavy with L237W, Q297L, M398P
light: B5 light
notes: as for B5
B13: M103205H795-MY202/M103202L889-SK1 (antibody, human IgG1, kappa, name in EU numbering)
heavy: B6 heavy with S241V, M398P
light: B5 light
notes: as for B5

What follows are binders tested against T1, human FcγRIIIaV extracellular domain, His-tagged (human, UniProt P08637 17-208) (assay: SPR (Biacore), 25C, FcgR bound per antibody captured).
T1 construct: also called human FcgRIIIaV
T1 sequence (P08637 17-208 F176V): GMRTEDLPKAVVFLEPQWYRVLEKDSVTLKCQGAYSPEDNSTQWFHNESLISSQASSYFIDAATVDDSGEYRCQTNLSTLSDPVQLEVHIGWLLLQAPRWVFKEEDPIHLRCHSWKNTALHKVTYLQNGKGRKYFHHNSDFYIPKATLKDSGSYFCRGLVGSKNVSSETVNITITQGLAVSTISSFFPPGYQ
In the case of B1, the “Binding to human FcgRs (parent B3 = 100)” value is reported as -1.
B2 was tested, and the “Binding to human FcgRs (parent B3 = 100)” value was 3.
B3 was tested, and the “Binding to human FcgRs (parent B3 = 100)” value was -1.
With B4 the “Binding to human FcgRs (parent B3 = 100)” value was 2.

Each binder was assayed against T2, human FcγRIIb extracellular domain, His-tagged (human, UniProt P31994 43-217) in the same assay as above.
T2 construct: also called human FcgRIIb
T2 sequence: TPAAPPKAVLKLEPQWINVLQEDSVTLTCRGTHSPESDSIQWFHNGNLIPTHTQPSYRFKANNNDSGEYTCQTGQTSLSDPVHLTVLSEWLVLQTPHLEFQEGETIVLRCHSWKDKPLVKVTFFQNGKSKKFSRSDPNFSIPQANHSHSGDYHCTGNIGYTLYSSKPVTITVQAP
B1 was tested, and the “Binding to human FcgRs (parent B3 = 100)” value was 72.
B2 was tested, and the “Binding to human FcgRs (parent B3 = 100)” value was 114.
In the case of B3, the “Binding to human FcgRs (parent B3 = 100)” value is reported as 61.
In the case of B4, the “Binding to human FcgRs (parent B3 = 100)” value is reported as 88.

These binders were tested against T3, human FcγRIIaH extracellular domain, His-tagged (human, UniProt P12318 34-217) in the same assay as above.
T3 construct: also called human FcgRIIaH; FcγRIIa type H
T3 sequence: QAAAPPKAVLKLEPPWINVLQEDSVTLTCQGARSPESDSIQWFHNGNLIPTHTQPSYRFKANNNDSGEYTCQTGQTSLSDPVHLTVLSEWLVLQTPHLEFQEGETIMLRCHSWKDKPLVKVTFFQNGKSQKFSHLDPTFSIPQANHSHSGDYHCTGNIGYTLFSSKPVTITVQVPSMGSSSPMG
In the case of B1, the “Binding to human FcgRs (parent B3 = 100)” value is reported as 65.
In the case of B2, the “Binding to human FcgRs (parent B3 = 100)” value is reported as 93.
In the case of B3, the “Binding to human FcgRs (parent B3 = 100)” value is reported as 49.

These binders were tested against T4, cynomolgus monkey FcγRIIIaS extracellular domain with C-terminal His-tag (cynomolgus monkey, UniProt A3RFZ7 21-206 (rhesus entry)) (assay: SPR (BIACORE); KD of SG1 / KD of variant).
T4 construct: also called cyno FcgRIIIaS; cynoFcγRIIIaS; not shown: His-tag added to the C-terminus
Protocol: The kinetic analysis of interactions between these antibodies and FcγR was carried out using BIACORE® T200 or BIACORE® 4000 (GE Healthcare). HBS-EP+ (GE Healthcare) was used as the running buffer, and the measurement temperature was set to 25° C. […] After the measurement, the antibody captured on the chip was washed off by allowing reaction with 10 mM glycine-HCl, pH1.5 and 25 mM NaOH so that the chip was regenerated and used repeatedly. The sensorgrams obtained as measurement results were analyzed by the 1:1 Langmuir binding model using the BIACORE® Evaluation Software to calculate the binding rate constant ka (L/mol/s) and dissociation rate constant kd (1/s), and the dissociation constant KD (mol/L) was calculated from these values. […] Regarding such interactions, KD values were calculated using the following 1:1 binding model described in BIACORE® T100 Software Handbook BR1006-48 Edition AE.
Target sequence in this assay (A3RFZ7 21-206): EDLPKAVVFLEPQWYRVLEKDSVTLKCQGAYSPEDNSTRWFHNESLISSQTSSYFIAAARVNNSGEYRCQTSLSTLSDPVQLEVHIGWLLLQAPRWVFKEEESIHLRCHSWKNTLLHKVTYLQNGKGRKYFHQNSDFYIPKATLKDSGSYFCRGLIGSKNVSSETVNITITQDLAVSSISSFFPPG
In the case of B5, the “KD fold (SG1 = 1)” value is reported as 0.08 fold.
B6 was tested, and the “KD fold (SG1 = 1)” value was 0.17 fold.

What follows are binders tested against T5, human FcγRIIb extracellular domain with C-terminal His-tag (human, UniProt P31994 43-217) (assay: SPR Biacore, antibody captured, FcgR analyte).
T5 construct: also called human FcgRIIb; not shown: His-tag added to C-terminus
T5 sequence: T2 sequence
B7 was tested, and the “KD fold (SG1 = 1)” value was 0.5 fold.

What follows are binders tested against T6, cynomolgus monkey FcγRIIIaS extracellular domain with C-terminal His-tag (cynomolgus monkey, UniProt A3RFZ7 21-206 (rhesus entry)) (assay: SPR Biacore, antibody captured, FcgR analyte).
T6 construct: also called cyno FcgRIIIaS; cynoFcγRIIIaS; not shown: His-tag added to C-terminus
Target sequence in this assay (A3RFZ7 21-206): as above
In the case of B8, the “KD fold (SG1 = 1)” value is reported as 0.1 fold.
With B7 the “KD fold (SG1 = 1)” value was 0.03 fold.
For B9, the “KD fold (SG1 = 1)” value was 0.05 fold.

Target: T7, cynomolgus monkey FcγRIIb extracellular domain with C-terminal His-tag (cynomolgus monkey)
T7 construct: also called cyno FcgRIIb; cynoFcγRIIb; not shown: His-tag added to C-terminus
T7 chain: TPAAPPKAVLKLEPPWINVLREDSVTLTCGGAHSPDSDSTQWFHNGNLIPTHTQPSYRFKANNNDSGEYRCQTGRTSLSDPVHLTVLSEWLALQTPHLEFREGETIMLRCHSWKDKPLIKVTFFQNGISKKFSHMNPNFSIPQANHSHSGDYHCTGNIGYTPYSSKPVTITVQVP
Test: SPR Biacore, antibody captured, FcgR analyte
With B8 the “KD fold (SG1 = 1)” value was 2.2 fold.
In the case of B7, the “KD fold (SG1 = 1)” value is reported as 1.5 fold.
In the case of B9, the “KD fold (SG1 = 1)” value is reported as 3.2 fold.

Target: T8, cynomolgus monkey FcγRIIa3 extracellular domain with C-terminal His-tag (cynomolgus monkey)
T8 construct: also called cyno FcgRIIa3; cynoFcγRIIa3; not shown: His-tag added to C-terminus
T8 chain: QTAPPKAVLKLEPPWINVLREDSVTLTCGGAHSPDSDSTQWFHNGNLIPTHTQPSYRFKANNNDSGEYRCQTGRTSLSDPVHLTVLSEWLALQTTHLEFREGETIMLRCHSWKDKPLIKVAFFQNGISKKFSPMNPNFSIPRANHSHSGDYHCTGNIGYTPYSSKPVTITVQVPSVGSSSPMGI
Test: SPR Biacore, antibody captured, FcgR analyte
With B8 the “KD fold (SG1 = 1)” value was 3.3 fold.
For B7, the “KD fold (SG1 = 1)” value was 1.5 fold.

Target: T9, human FcγRIIaR extracellular domain with C-terminal His-tag (human, UniProt P12318 34-217)
T9 construct: also called human FcgRIIaR; FcγRIIa type R; not shown: His-tag added to the C-terminus
T9 chain: T3 sequence with H134R
Test: SPR (BIACORE), antibody captured, FcgR analyte
B5 showed a Kd of 7800 nM.
In the case of B10, the Kd is reported as 2700 nM.
With B11 the Kd was 19 nM.
In the case of B12, the Kd is reported as 1100 nM.

These binders were tested against T4, cynomolgus monkey FcγRIIIaS … (assay: SPR (BIACORE), antibody captured, FcgR analyte).
T4 sequence (A3RFZ7 21-206): as the sequence (A3RFZ7 21-206) above
With B5 the Kd was 4500 nM.
Binder B6 has a Kd of 2100 nM.
B10 showed a Kd of 4400 nM.
B13 showed a Kd of 4000 nM.
Work on B11 yielded a Kd of 11000 nM.
B12 gave a Kd of 9300 nM.

Each binder was assayed against T10, human FcγRIIaH extracellular domain with C-terminal His-tag (human, UniProt P12318 34-217) (assay: SPR (BIACORE), antibody captured, FcgR analyte).
T10 construct: also called human FcgRIIaH; FcγRIIa type H; not shown: His-tag added to the C-terminus
T10 sequence: T3 sequence
In the case of B6, the Kd is reported as 160 nM.
For B13, the Kd was 1200 nM.
B11 gave a Kd of 1600 nM.

Target: T11, cynomolgus monkey FcγRIIa3 extracellular domain with C-terminal His-tag (cynomolgus monkey)
T11 construct: also called cyno FcgRIIa3; cynoFcγRIIa3; not shown: His-tag added to the C-terminus
T11 chain: T8 chain
Test: SPR (BIACORE), antibody captured, FcgR analyte
Work on B6 yielded a Kd of 1400 nM.
With B13 the Kd was 2200 nM.
With B11 the Kd was 6400 nM.
Work on B12 yielded a Kd of 4800 nM.
